Values joined by “and” are separate entries in the source; they are usually repeats but may differ in a detail not shown here. Identical values can stand only once.
Key:
[1] = biological target: rationally optimised SUWA (N22E/H86K mutant of SUWA, super WA20); assay: SEC-MALS; Superdex 75 Increase 10/300 GL, 20 °C, 20 mM HEPES pH 7.5, 150 mM NaCl, 5% glycerol; oligomeric number from the mass of each peak and the theoretical mass of the monomer
[2] = biological target: rationally optimised WA20 (N22A/H86K mutant of the de novo protein WA20); assay: as above

| mass fraction of peak (i), dimer [1] [%] | mass fraction of peak (ii), tetramer [1] [%] | mass fraction of peak (iii), hexamer [1] [%] | mass fraction of peak (iv), higher oligomers [1] [%] | mass fraction of peak (i), dimer [2] [%] | mass fraction of peak (ii), tetramer [2] [%] | mass fraction of peak (iii), hexamer [2] [%] | stoichiometry N [2] | Substance |
| --- | --- | --- | --- | --- | --- | --- | --- | --- |
| 64 | 18 | 7 | 11 | – | – | – | – | rationally optimised SUWA (N22E/H86K mutant of SUWA, super WA20) |
| – | – | – | – | 77 | 21 | 2 | 2 mer and 4 mer and 6 mer | rationally optimised WA20 (N22A/H86K mutant of the de novo protein WA20) |
